Reference: article PMC5231405 (eLife, 2016)
Where a chain is given by its changes, count along the chain named.

Legend:
CheY (Escherichia coli) = CheY (Escherichia coli) (UniProt P0AE67); conditions: cited from earlier work
[1] = biological target: T1, DesKCSTAB:DesR-REC complex (phosphatase complex) (Bacillus subtilis, UniProt O34757, S150I/S153L/R157I); test: X-ray crystallography; conditions: Mg2+, BeF3-; pH 8.5; CA (ATP-binding) domain; 2.79 A
T1 construct: gene desK; DesK cytoplasmic portion with DesR receiver domain; His-tag and TEV site on each, co-expressed in E. coli BL21(DE3); 2:2 complex; with Transcriptional regulatory protein DesR
T1 sequence (O34757 150-370 S150I/S153L/R157I, one chain of several): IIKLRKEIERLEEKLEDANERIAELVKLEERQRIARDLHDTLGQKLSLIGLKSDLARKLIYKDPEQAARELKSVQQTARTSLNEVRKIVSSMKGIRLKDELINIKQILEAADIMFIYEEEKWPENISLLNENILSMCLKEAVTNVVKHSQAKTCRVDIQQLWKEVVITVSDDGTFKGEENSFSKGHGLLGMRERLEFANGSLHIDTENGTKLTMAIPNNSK

[2] = biological target: T2, DesKC_(H188V), mutant of the cytoplasmic portion of DesK trapped in the phosphatase state (B. subtilis, UniProt O34757 154-370, H188V); test: ITC; VP-ITC; DesR-REC (350-400 µM) injected into the cell with DesKC variants (25-30 µM); 15°C; 20 mM Tris.HCl pH 8, 0.3 M NaCl, 10 mM MgCl2, 0.5 mM AMP-PNP; duplicate; fitted to a two independent sequential site model; design: unit not given here; conditions: both partners purified
T2 construct: DesK, histidine kinase of Bacillus subtilis; cytoplasmic portion (DesKC); also called DesK_(H188V)
T2 sequence: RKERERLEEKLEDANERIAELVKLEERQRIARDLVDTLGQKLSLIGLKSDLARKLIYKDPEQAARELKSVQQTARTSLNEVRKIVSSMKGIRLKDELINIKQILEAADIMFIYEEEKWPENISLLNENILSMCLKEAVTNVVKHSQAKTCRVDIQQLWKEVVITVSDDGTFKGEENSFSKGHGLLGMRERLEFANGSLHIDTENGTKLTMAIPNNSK

[3] = biological target: T3, DesKC_(H188E), free protein used in ITC (B. subtilis, UniProt O34757 154-370, H188E); test: as above; design: unit not given here; conditions: both partners purified
T3 construct: DesK, histidine kinase of Bacillus subtilis; cytoplasmic portion (DesKC); Kept apart from m2 because it stood alone in the calorimeter cell, whereas m2 was co-expressed and purified with DesR-REC; It may be the same polypeptide as m2
T3 sequence: T2 sequence with V35E

[4] = biological target: T2, DesKC_(H188V), mutant of the …; test: as above; conditions: both partners purified
[5] = biological target: T3, DesKC_(H188E), free protein used in ITC; test: as above; conditions: both partners purified
[6] = biological target: DesKC_(STAB), phosphatase-constitutive mutant of the cytoplasmic portion of the histidine kinase DesK (B. subtilis); test: SEC-SAXS; purified DesK-DesR complexes at 10 mg/mL in 50 mM Tris.HCl pH 8.0, 300 mM NaCl, Superdex 75 5/150 GL, beamline SWING; theoretical curves of crystal models fitted with CRYSOL, mixtures with OLIGOMER

Chain of CheY (Escherichia coli) (P0AE67 2-129): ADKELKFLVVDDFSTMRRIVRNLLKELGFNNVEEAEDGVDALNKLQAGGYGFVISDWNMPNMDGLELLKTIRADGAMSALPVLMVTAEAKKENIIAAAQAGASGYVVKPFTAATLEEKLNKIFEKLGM

CheA (from UniProt P07363)
Kd (CheY (Escherichia coli)): 30 nM

Nc1ncnc2c1ncn2[C@@H]1O[C@H](COP(=O)(O)OP(=O)(O)CP(=O)(O)O)[C@@H](O)[C@H]1O [AMP-PCP]
X-ray crystallography [1]: one AMP-PCP (ATP analogue) moiety is bound to each CA domain

B1: DesR-REC, free protein used as ligand in ITC (domain or fragment, B. subtilis)
chain: MISIFIAEDQQMLLGALGSLLNLEDDMEVVGKGTTGQDAVDFVKKRQPDVCIMDIEMPGKTGLEAAEELKDTGCKIIILTTFARPGYFQRAIKAGVKGYLLKDSPSEELANAIRSVMNGKRIYAPELMEDLYSEA
notes: DesR, response regulator of Bacillus subtilis, REC domain; Probably from pQE80-DesR-REC in E. coli TOP10F', the plasmid and host that the methods name for functional assays (Trajtenberg et al., 2014)
dH, first printed row (two sequential sites fit) [2]: 15000 | dH, second printed row (two sequential sites fit) [2]: 14000 | dH, first printed row (two sequential sites fit) [3]: 22000 | dH, second printed row (two sequential sites fit) [3]: 21000 | stoichiometry N [4]: 2 RR monomers per HK dimer | stoichiometry N [5]: 1 RR monomers per HK dimer | stoichiometry N (RR monomers per HK dimer) [6]: 2
